Consider 25 molecules from PMC9270183 (The Journal of Experimental Medicine, 2022).

The target in this assay is SARS-CoV-2 Wuhan-Hu-1 RBD (SARS-CoV-2 Wuhan-Hu-1, UniProt P0DTC2). Put plainly: BLI. As to conditions: both partners purified.

B1: V007 (antibody, V domains shown)
VH: QVQLVQSGAEVKKPGSSVKVSCKASGDTFSTYTISWVRQAPGQGLEWMGRIIPILGVGNYAQKFQGRVTITADKSTSTAYMELSSLRSEDTAVYYCAHTTPPGDAFDIWGQGTMVTVSS
VL: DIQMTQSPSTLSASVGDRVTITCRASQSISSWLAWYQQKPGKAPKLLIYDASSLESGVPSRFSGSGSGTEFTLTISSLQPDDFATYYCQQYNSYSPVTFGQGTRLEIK
notes: IgG; donor BRA13; source: recombinant monoclonal IgG, produced and purified as previously described
The Kd is the constant that tells how readily two partners part at equilibrium. The molecule B1 displayed a Kd of 3.59 nM.

B2: V055 (antibody, V domains shown)
VH: QVQLVQSGAEVKKPGSSVKVSCKASGGTFSSYIINWVRQAPGQGLEWMGRIIPILGIANYAQKFHGRVTITADESTSTAYMELSSLRSEDTAVYYCARGGPDPSDSNYAALLYYYYMDVWGKGTTVTVSS
VL: QSVLTQPPSVSAAPGQKVTISCSGSSSNIGSYYVSWYQKLPGTAPKLLIHENNKRPSGIPDRISGSKSGTSATLGITGLQTGDEADYYCGTWDSSLSDVVFGGGTKLTVL
notes: IgG; donor BRA15; source: recombinant monoclonal IgG, produced and purified as previously described
Molecule B2 gave a dissociation constant (Kd) of 0.981 nM.

B3: V011 (antibody, V domains shown)
VH: QVQLVQSGAEVKKPGASVKVSCKASGYIFTSYDINWVRQATGQGLEWMGWMNPNSGNTGYAQKFQGRVTMTRNTSISTAYMELSSLRSEDTAVYYCARASSSLTYYFDYWGQGTLVTVSS
VL: SYELTQPPSVSVAPGKTARITCGENNIGSKSVHWYQQKPGQAPVLVVYDDSDRPSGIPERFSGSNSGNTATLTISRVEAGDEADYYCQVWDSSSDPVVFGGGTKLTVL
notes: as for B1
Consider B3, for which binding was put at a Kd of 7.46 nM.

B4: V002 (antibody, V domains shown)
VH: EVQLVESGGGLVQPGRSLRLSCAASGFTFDEYAMHWVRQAPGKGLEWVSGSSWNSGTIGYADSVKGRFTISRDNAKNSLYLQMNSLRAEDTALYYCAKSQGDYGGNSGAGYFQHWGQGTLVTVSS
VL: SYELTQPPSVSVAPGKTARITCGGNNIGSKSVHWYQQKPGQAPMLVVYDDSDRPSGIPERFSGSNSGNTATLTISRVEAGDEADYYCQVWDSSSEVYVFGTGTKVTVL
notes: as for B1
B4 registered an equilibrium dissociation constant (Kd) of 1170 nM.

B5: V017 (antibody, V domains shown)
VH: EVQLVESGGGLVQPGGSLRLSCVASGFTFSTYSMNWVRQAPGKGLEWVSYISSSSSTIYYADSVKGRFTISRDNAKSSLYLQMNSLRAEDTAVYYCASGLCGGDCPLTCWGQGTLVTVSS
VL: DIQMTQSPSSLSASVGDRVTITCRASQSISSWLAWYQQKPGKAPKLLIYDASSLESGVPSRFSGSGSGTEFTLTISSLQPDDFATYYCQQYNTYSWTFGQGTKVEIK
notes: as for B1
B5 came in with a Kd of 18.4 nM.

B6: V061 (antibody, V domains shown)
VH: QVQLVQSGAEVKKPGTSVKVSCKASGYTFKNYGISWVRQAPGQGLEWMGWISAHNGNTNYAQRVQGRVTMTTDTSTSTAYMELRSLRSEDTAVYYCGRESGVASHPGDLDYWGQGTLVTVSS
VL: SYELTQPPSVSVSPGQTARITCSGDALPRQYAYWYQQKPGQAPVLLIYKDSERPSGIPERFSGSSSGTTVTLTISGVQAEDEADYYCQSADSSVVFGGGAKLTVL
notes: as for B2
Molecule B6 registered a Kd of 13.3 nM.

B7: V015 (antibody, V domains shown)
VH: EVQLVESGGGLVQPGGSLRLSCAASGFTFNSYWMSWVRQAPGKGLEWVANIKQDGSEKYYVDSVKGRFTISRDNAKNSLYLQMNSLRAEDTAVYYCARLPTYYSGFDYWGQGTLVTVSS
VL: NFMLTQPHSVSESPGKTVTISCTGSSGSIASNYVQWYQQRPGSAPTTVIYEDNQRPSGVPDRFSGSIDSSSNSASLTISGLKTEDEADYYCQSYDSTNRGVVFGGGTKLTVL
notes: as for B1
Turning to B7, binding was characterised by a dissociation constant (Kd) of 15.8 nM.

B8: V050 (antibody, V domains shown)
VH: EVQLVESGGGLVKPGGSLRLSCAASGFSFSNAWMSWVRQAPGKGLEWVGRIKSKTDGGTTDYAAPVKGRFTISRDDSQNTLYLQMNSLKTEDTAVYYCITDRFRVHIRGYYGQGTLVTVSS
VL: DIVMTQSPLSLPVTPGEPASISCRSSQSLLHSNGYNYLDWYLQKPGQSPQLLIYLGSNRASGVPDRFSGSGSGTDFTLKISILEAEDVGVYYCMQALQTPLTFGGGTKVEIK
notes: as for B2
Turning to B8, the affinity, expressed as Kd, was 56.9 nM.

B9: V013 (antibody, V domains shown)
VH: QVQLVESGGGVVQPGRSLRLSCAGSGFIFSSFAMHWVRQAPGKGLEWVAVVSYDGDNKYYADSVKGRFTISRDNSKNTLYLQMDSLRPEDTAVYFCGRDEAALWIQRWYREIDFWGQGTLVTVSS
VL: QSVLTQPPSVSGTPGQRVTISCSGSSSNTGRNPVTWYQQFPGSAPKLLISRNNQRPSGVPDRFSGSKSGTSASLAISGLQSEDEADYYCAAWDDNLNGQVFGGGTKVTVL
notes: as for B1
B9 gave a Kd of 128 nM.

B10: V056 (antibody, V domains shown)
VH: QVQLVESGGGVVQPGRSLRLSCAASGFPFSNYGMHWVRQAPGKGLEWVAVISYDGSNKYYADSVKGRFTISRDNSKNTLYLQMNSLRAEDTALYYCAKDSRPLPAAMSTYYYYGVDVWGQGTTVTVSS
VL: not shown
notes: as for B2
In turn, B10 gave a dissociation constant Kd of 14.3 nM.

B11: V060 (antibody, V domains shown)
VH: QVQLVESGGGVVQPGRSLRLSCAASGFPFSNYGMHWVRRAPGKGLEWVAVISYDGLNKYYADSVKGRFTISRDNSKNTLYLQMNRLRAEDTAVYYCAKDSRPVPGAMSTYYYYGMDVWGQGTTVTVSS
VL: not shown
notes: as for B2
B11 registered a Kd of 20.6 nM.

B12: V054 (antibody, V domains shown)
VH: QVQLVESGGGVVQPGRSLRLSCAASGFPFSSFGMHWVRQAPGKGLEWVAVISSDGSNKYYADSVKGRFTISRDNSKNTLYLQMNSLRAEDTAVYYCAKEFTYVVVTALWGTENFDIWGQGTMVTVSS
VL: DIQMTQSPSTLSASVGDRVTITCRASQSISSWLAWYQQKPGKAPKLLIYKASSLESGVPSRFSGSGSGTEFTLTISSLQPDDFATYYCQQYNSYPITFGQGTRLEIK
notes: as for B2
In the case of B12, binding was put at a Kd of 17.8 nM.

B13: V063 (antibody, V domains shown)
VH: QVQLVESGGGVVQPGRSLRLSCAASGFPFSSFGMHWVRQAPGKGLEWVAVISSDGSNKYYADSVKGRFTISRDNSKNTLYLQMNSLRAEDTAVYYCAKEFTYVVVTAFWGTENFDIWGQGTMVTVSS
VL: DIQMTQSPSTLSASVGDRVTITCRASQSISSWLAWYQQKPGKAPNLLIYKASALESGVPSRFSGSGSGTEFTLTISSLQPDDFATYYCQQYNSYPITFGQGTRLEIK
notes: as for B2
On to B13, for which binding was put at a Kd of 4.16 nM.

B14: V062 (antibody, V domains shown)
VH: QLQLQESGPGLVKPSETLSLTCTVSSGSISSSSYYWGWIRQPPGKGLEWIGSIYYSGSTYYNPSLKSRVTISVDTSKNQFSLKLSSVTAADTAVYYCARHWRENFAHAFDIWGQGTMVTVSS
VL: QSALTQPASVSGSPGQSITISCTGTSSDVGSYDLVSWFQQHPGKAPKLMIYEVTKRPSGVSNRFSGSKSGNTASLTISGLQAEDEADYYCCSYVGSSTYWVFGGGTKLTVL
notes: as for B2
Consider B14, for which binding was characterised by a dissociation constant (Kd) of 2.86 nM.

B15: V010 (antibody, V domains shown)
VH: QVQLQESGPGLVKPSETLSLTCTVSGGSISSYYWSWIRQPPGKGLEWIGYIYYNGSTNYNPSLKSRVTISLDTSKNQFSLKLSSVTAADTAVYYCASDYYDSSGYYYGFDYWGQGTLVTVSS
VL: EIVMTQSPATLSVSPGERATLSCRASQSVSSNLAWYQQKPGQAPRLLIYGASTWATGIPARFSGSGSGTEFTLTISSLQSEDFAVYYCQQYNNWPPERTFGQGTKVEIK
notes: as for B1
B15: the Kd is 2.08 nM.

B16: V014 (antibody, V domains shown)
VH: EVQLVESGGGLVQPGGSLRLSCAASGFTFSSYDMHWVRQATGKGLEWVSAIGTAGDTYYPGSVKGRFTISRENAKNSLYLQMNSLRAGDTAVYYCARGVITMVRGVIRDYYYYGMDVWGQGTTVTVSS
VL: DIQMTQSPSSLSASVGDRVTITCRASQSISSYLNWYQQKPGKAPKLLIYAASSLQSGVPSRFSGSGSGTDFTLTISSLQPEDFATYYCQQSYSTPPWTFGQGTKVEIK
notes: as for B1
On to B16, for which the equilibrium dissociation constant (Kd) is 15.1 nM.

B17: V046 (antibody, V domains shown)
VH: EVQLVESGGGLVQPGRSLRLSCAASGFTFEDYAMHWVRQAPGKGLEWVSGVSWNSGTIGYADSVKGRFIISRDNAKNSLYLQMNSLRAEDTALYYCANLGPTYYDFSRPTPMDVWGKGTTVTVSS
VL: QSALTQPASVSGSPGQSITISCTGTSSDVGGYNYVSWYQQHPGKAPKLIIYDVSNRPSGVSNRFSGSKSGNTASLTISGLQAEDEADYYCSSYTSSSTWVFGGGTKLTVL
notes: as for B2
Regarding B17, the Kd came to 0.698 nM.

B18: V048 (antibody, V domains shown)
VH: QVQLVQSGAEVKKPGASVKVSCKASGYTFTSYVISWVRQAPGQGLEWMGWISAYNGNTNYAQKLQGRVTMTTDTSTSTAYMELRSLRSDDTAVYYCARDVAGITMIVEEVIDAFDIWGQGTMVTVSS
VL: SYELTQPSSVSVSPGQTARITCSGDVLAKKYARWFQQKPGQAPVLVIYKDSERPSGIPERFSGSSSGTTVTLTISGAQVEDEADYYCFSAPDNNRVFGGGTKLTVL
notes: as for B2
Take B18: the Kd was found to be 5.02 nM.

B19: V045 (antibody, V domains shown)
VH: QVQLVQSGAEVKKPGASVKVSCKASTYTFTSYYIHWVRQAPGQGLEWMGIINPSGGSTSYAQNFQGRVTMTRDTSTSTVYMELSSLRSEDTAVYYCARGVLIPAAGGDFDYWGQGTLVTVSS
VL: QSALTQPRSVSGSPGQSVTISCTGTSSDVGGYKYVSWYQQHPGKAPKLMIYDVSKRPSGVPDRFSGSKSGNTASLTISGLQAEDEADYYCCSYAGSYSWVFGGGTKLTVL
notes: as for B2
For the molecule B19, the Kd is 2.95 nM.

B20: V057 (antibody, V domains shown)
VH: EVQLVESGGGLVQPGRSLRLSCAASGFTFGDYAMHWVRQAPGKGLEWVSGISWNSGIIGQADSVKGRFTISRDNAKNSLYLQMNSLRVEDTALYYCAKGGGESVEVPADEKLDYWGQGTLVTVSS
VL: QSVLTQPPSVSGAPGQRVTISCTGSSSNIGAGYDVHWYQQLPGTAPKLLIYGNNNRPSGVPDRFSGSKSGTSASLAITGLQAEDEADYYCQSYDSSLSGSWVFGGGTKLTVL
notes: as for B2
B20 displayed a Kd of 16.9 nM.

B21: V049 (antibody, V domains shown)
VH: QVQLVESGGGVVQPGRSLRLSCAASRFPFSNYGMHWVRQAPGKGLEWVAVISFDGNNKYYGDSVKGRLTISRDNSKNTLYLQVKSLRPEDTAVYYCAKDISTGLSLALFRSPDGEGMDVWGQGTTVTVSS
VL: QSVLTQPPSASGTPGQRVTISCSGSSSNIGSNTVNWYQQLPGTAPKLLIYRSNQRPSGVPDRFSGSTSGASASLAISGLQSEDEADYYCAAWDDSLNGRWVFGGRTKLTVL
notes: as for B2
Take B21: binding was characterised by a dissociation constant (Kd) of 12.8 nM.

B22: V064 (antibody, V domains shown)
VH: EVQLVESGGGLVQPGGSLRLSCAASGLTVSRNYMRWVRQAPGKGLEWVSLIYSGGSTFYGDSVKGRFTISRDNSKNTLYLQMNSLRAEDTAVYYCARDLVRDGMDVWGQGTTVTVSS
VL: EIVMTQSPATLSVSPGERATLSCRASQSVSSNLAWYQQKPGQAPRLLIYGASTRATGIPARFSGSGSGTEFTLTISSLQSEDFAVYYCQQYNNWTFGQGTKVEIK
notes: as for B2
On to B22, for which the affinity, expressed as Kd, was 2.76 nM.

B23: V016 (antibody, V domains shown)
VH: QVQLVESGGGVVQPGRSLRLSCAASGFTFSNYGMHWVRQAPGKGLEWVAVISYDGSNKYYADSVKGRFTISRDNSKNTLYLQMNSVRVEDTAVYYCAKGSFGYSYVHTYFDYWGQGTLVTVSS
VL: DIQMTQSPSTLSASVGDRVTITCRASQSISSWLAWYQQKPGKAPKLLIYDASSLESGVPSRFSGSGSGTEFILTISSLQPDDFATYYCQQYNSPMYTFGQGTKLEIK
notes: as for B1
Take B23: binding was characterised by a dissociation constant (Kd) of 5.84 nM.

B24: V051 (antibody, V domains shown)
VH: QVQLVESGGGVVQPGRSLRLSCEASGFTFSTYAMHWVRQAPGKGLEWVAVISYDGNNKYYADSVKGRLTVSRDNSKNTLYLQMNSLRAEDTAEYYCARDDGGYCSSLSCPMDVWGQGTTVTVSS
VL: SYELTQPPSVSVAPGKTARITCGGNSIGSKSVHWYQQRPGQAPVLVIYYDSDRPSGIPERFSGSNSGNTATLTISRVEAGDEADYYCQVWDSTLVFGGGTKLTVL
notes: as for B2
For B24, the Kd came to 14.5 nM.

B25: V009 (antibody, V domains shown)
VH: EVQLVQSGAEVKKPGESLKISCKGSGYRFTSYWIGWVRQMPGKGLEWMGIIYAGDSDTRYSPSFQGQVTISVDKSISTAYLQWSSLKASDTAMYYCATTMTTGYFDYWGQGTLVTVSS
VL: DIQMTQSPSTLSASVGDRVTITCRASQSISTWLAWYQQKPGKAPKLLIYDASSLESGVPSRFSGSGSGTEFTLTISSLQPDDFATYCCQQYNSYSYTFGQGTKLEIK
notes: as for B1
Molecule B25 had a Kd of 3.22 nM.
